Test results taken from paper PMC4980159 (Biochemistry, 2016).
Read-outs that look alike come from different tables or passages of the source.

Legend:
[1] = molecular target: CEACAM5 N-terminal domain (Homo sapiens) (UniProt P06731); conditions: cited from earlier work
Target sequence in this assay (P06731 35-144): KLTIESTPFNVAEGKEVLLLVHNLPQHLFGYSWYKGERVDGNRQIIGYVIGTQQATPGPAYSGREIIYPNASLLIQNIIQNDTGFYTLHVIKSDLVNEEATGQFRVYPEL

[2] = molecular target: Fibronectin (Homo sapiens) (UniProt P02751); conditions: cited from earlier work
[3] = molecular target: CEACAM5 N-terminal domain (Homo sapiens) (UniProt P06731); conditions: cited from earlier work; remark: listed apart in the source
[4] = molecular target: Fluorescently labeled NCCM1 H139C (human) (UniProt P13688); experiment: fluorescence polarisation
[5] = molecular target: Fluorescently labeled NCCM3 H139C (human) (UniProt P40198); experiment: fluorescence polarisation
[6] = molecular target: Recombinant OpaD reconstituted into liposomes (N. gonorrhoeae strain FA1090, UniProt Q04883 2-243); experiment: fluorescence polarisation

Fibronectin (Homo sapiens), sequence (P02751 32-2477): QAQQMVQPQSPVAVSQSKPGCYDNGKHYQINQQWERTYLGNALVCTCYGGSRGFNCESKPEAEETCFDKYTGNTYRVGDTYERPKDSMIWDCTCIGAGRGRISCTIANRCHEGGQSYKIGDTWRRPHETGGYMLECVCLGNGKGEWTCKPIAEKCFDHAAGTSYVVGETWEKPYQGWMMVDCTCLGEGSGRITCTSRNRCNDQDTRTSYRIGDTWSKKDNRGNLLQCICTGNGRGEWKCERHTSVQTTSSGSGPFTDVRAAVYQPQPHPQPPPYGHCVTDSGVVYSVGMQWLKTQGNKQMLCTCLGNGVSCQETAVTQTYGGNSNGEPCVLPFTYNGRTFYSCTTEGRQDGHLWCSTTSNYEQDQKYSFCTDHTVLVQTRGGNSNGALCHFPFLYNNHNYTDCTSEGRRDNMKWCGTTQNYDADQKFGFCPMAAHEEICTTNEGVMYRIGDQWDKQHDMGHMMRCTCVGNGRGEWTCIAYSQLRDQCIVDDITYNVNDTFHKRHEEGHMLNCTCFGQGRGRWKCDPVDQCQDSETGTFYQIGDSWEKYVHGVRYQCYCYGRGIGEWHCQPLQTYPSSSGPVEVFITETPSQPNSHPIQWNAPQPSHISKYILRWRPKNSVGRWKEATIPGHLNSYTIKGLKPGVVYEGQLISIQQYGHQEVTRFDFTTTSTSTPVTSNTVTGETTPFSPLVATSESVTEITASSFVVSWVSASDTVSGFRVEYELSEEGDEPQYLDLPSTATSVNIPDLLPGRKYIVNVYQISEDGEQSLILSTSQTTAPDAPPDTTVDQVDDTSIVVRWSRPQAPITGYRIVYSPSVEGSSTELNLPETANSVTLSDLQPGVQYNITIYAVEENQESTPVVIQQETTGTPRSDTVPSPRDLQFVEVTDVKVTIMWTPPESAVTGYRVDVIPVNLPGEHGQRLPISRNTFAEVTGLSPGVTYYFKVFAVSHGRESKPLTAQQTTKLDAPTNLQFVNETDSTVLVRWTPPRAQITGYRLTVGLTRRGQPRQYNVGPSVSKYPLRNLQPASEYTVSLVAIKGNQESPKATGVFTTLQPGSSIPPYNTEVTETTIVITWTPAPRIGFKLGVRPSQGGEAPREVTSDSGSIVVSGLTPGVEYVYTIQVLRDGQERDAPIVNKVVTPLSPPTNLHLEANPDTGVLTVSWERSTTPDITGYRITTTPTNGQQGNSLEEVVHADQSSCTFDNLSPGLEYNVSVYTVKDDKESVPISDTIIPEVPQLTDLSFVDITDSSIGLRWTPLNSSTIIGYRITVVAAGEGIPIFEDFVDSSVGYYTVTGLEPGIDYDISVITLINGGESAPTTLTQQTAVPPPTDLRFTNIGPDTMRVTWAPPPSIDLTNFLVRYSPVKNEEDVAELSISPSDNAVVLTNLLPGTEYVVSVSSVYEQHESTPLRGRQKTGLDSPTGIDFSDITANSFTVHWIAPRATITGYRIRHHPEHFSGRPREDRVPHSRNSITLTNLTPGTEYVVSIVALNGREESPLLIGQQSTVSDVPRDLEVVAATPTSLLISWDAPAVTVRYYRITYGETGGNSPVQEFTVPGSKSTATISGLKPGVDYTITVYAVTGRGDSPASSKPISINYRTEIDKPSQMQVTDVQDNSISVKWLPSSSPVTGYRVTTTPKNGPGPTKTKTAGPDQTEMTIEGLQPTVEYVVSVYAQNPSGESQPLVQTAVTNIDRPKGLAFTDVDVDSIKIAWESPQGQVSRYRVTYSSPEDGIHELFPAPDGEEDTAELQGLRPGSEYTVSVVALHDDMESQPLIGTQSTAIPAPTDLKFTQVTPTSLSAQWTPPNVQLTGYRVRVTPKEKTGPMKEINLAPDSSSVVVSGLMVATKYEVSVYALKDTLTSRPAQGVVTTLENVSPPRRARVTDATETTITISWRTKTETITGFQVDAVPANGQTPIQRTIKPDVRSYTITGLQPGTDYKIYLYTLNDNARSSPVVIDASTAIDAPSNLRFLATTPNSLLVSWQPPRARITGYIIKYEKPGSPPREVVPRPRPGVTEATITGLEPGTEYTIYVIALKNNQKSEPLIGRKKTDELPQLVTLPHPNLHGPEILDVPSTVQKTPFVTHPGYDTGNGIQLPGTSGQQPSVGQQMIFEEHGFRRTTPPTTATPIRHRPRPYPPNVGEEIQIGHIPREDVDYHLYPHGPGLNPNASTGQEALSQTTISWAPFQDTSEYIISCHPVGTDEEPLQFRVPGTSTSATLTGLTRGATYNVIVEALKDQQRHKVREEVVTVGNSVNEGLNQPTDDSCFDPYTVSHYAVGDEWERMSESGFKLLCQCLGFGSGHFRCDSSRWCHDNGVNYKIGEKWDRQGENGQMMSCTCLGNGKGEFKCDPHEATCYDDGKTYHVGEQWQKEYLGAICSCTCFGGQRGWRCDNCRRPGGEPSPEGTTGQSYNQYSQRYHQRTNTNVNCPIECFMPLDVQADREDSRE

CEACAM5 A3 domain (from UniProt P06731)
Kd [1]: 18 nM

CEACAM5 N-terminal domain (from UniProt P06731)
Kd [2]: 16 nM
Kd [3]: 100 nM

Recombinant Opa60 reconstituted into liposomes (natural protein)
Kd [4]: 1.6 nM
Kd [5]: 4.3 nM

B1: Fluorescently labeled NCCM1 H139C (domain or fragment, human, UniProt P13688-1 35-141, looked up)
chain: QLTTESMPFNVAEGKEVLLLVHNLPQQLFGYSWYKGERVDGNRQIVGYAIGTQQATPGPANSGRETIYPNASLLIQNVTQNDTGFYTLQVIKSDLVNEEATGQFCVY
modifications: AMS (4-acetamido-4'-maleimidylstilbene-2,2'-disulfonic acid) on the introduced cysteine (H139C)
Kd [6]: 2.6 ± 1.3 nM

B2: Fluorescently labeled NCCM3 H139C (domain or fragment, human)
chain: PGSGAKLTIESMPLSVAEGKEVLLLVHNLPQHLFGYSWYKGERVDGNSLIVGYVIGTQQATPGAAYSGRETIYTNASLLIQNVTQNDIGFYTLQVIKSDLVNEEATGQFCVYQ
modifications: AMS (4-acetamido-4'-maleimidylstilbene-2,2'-disulfonic acid) on the introduced cysteine (H139C)
Kd [6]: 6.8 ± 2.2 nM
